This note sets out measurements from paper PMC9813592, “A genetic screen in Arabidopsis reveals the identical roles for RBP45d and PRP39a in 5’ cryptic splice site selection”.

For data set [1], the target named is T1, RBP45d (His-RBP45d) (Arabidopsis thaliana, UniProt Q8VXZ9 1-425).
T1 sequence: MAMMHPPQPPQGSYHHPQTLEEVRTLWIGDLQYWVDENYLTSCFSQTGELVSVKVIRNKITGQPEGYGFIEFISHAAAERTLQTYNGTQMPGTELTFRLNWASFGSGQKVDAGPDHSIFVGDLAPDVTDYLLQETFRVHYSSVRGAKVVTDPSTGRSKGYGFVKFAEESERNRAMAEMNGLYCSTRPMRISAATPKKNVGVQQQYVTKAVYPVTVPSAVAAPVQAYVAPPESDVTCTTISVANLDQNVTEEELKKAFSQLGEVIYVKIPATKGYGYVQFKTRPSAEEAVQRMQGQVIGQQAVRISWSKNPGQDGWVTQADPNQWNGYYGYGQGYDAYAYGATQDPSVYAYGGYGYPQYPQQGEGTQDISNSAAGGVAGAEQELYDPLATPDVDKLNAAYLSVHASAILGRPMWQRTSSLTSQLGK
Put plainly: competition; unlabeled vs Cy5-SOT5-IN7; REMSA; buffer, salt, pH and temperature not given in the material; unlabeled competitor up to at least 6 uM. The conditions noted are these: protein: recombinant; tags: His (pET51b); single strand.

In data set [2] the target is T1, RBP45d (His-RBP45d). In words: EMSA; dose-dependent; REMSA; buffer, salt, pH and temperature not given in the material; unlabeled competitor up to at least 6 uM. The conditions noted are these: protein: recombinant; tags: His (pET51b); label: 5'-Cy5; single strand.

B1: SOT5-IN7-NL (ssRNA)
RNA: CUCAAUAUGAUAAAUUUUGUAAAUC
For the molecule B1, the binding result in data set [1] is recorded as “binds”.

B2: SOT5-IN7-M1-NL (ssRNA)
RNA: CUCAAUAUGGUAAAUUUUGUAAAUC
Take B2: in data set [1], the binding result is listed as “binds”.

B3: SOT5-IN7-M4-NL (ssRNA)
RNA: CUCAAUAUGCCCGGCCGGGUAAAUC
In the case of B3, the binding result in data set [1] was “no binding”.

B4: Cy5-SOT5-IN7 (ssRNA)
RNA: CUCAAUAUGAUAAAUUUUGUAAAUC
For B4, the binding result in data set [2] is given as “binds”.

B5: SOT5-IN7-M2-NL (ssRNA)
RNA: CUCAAUAUGGCAAAUUUUGUAAAUC
As for B5, in data set [1], the binding result is given as “binds”.
